In paper PMC7367873, “Dissecting the sequence determinants for dephosphorylation by the catalytic subunits of phosphatases PP1 and PP2A” (Nature Communications, 2020):

Key:
[1] = system: GFP-14-3-3β; experiment: GFP-14-3-3β co-IP with LC-MS/MS, untreated GFP-14-3-3β versus GFP control (14-3-3 interactome); type: binding, human; settings: pairwise comparison untreated vs GFP
[2] = system: GFP-14-3-3β and its binding proteins; experiment: GFP-14-3-3β co-IP with LC-MS/MS label-free quantification, untreated versus PP1c-treated; design: species or system human; settings: pairwise comparison PP1 vs untreated

Row | Molecule | Difference (log2), untreated vs GFP [1] [log2] | Difference (log2), PP1 vs untreated [2] [log2]
1 | GNB2 (protein, UniProt P62879 2-340, looked up) Guanine nucleotide-binding …: SELEQLRQEAEQLRNQIRDARKACGDSTLTQITAGLDPVGRIQMRTRRTLRGHLAKIYAMHWGTDSRLLVSASQDGKLIIWDSYTTNKVHAIPLRSSWVMTCAYAPSGNFVACGGLDNICSIYSLKTREGNVRVSRELPGHTGYLSCCRFLDDNQIITSSGDTTCALWDIETGQQTVGFAGHSGDVMSLSLAPDGRTFVSGACDASIKLWDVRDSMCRQTFIGHESDINAVAFFPNGYAFTTGSDDATCRLFDLRADQELLMYSHDNIICGITSVAFSRSGRLLLAGYDDFNCNIWDAMKGDRAGVLAGHDNRVSCLGVTDDGMAVATGSWDSFLKIWN | -1.0406 | -0.1195
2 | TRIP13 (protein, UniProt Q15645 1-432, looked up) Pachytene checkpoint protein …: MDEAVGDLKQALPCVAESPTVHVEVHQRGSSTAKKEDINLSVRKLLNRHNIVFGDYTWTEFDEPFLTRNVQSVSIIDTELKVKDSQPIDLSACTVALHIFQLNEDGPSSENLEEETENIIAANHWVLPAAEFHGLWDSLVYDVEVKSHLLDYVMTTLLFSDKNVNSNLITWNRVVLLHGPPGTGKTSLCKALAQKLTIRLSSRYRYGQLIEINSHSLFSKWFSESGKLVTKMFQKIQDLIDDKDALVFVLIDEVESLTAARNACRAGTEPSDAIRVVNAVLTQIDQIKRHSNVVILTTSNITEKIDVAFVDRADIKQYIGPPSAAAIFKIYLSCLEELMKCQIIYPRQQLLTLRELEMIGFIENNVSKLSLLLNDISRKSEGLSGRVLRKLPFLAHALYVQAPTVTIEGFLQALSLAVDKQFEERKKLAAYI | 0.9602 | -0.09713
3 | PATL1 (protein, UniProt Q86TB9 1-770, looked up) Protein PAT1 homolog 1: MFRYESLEDCPLDEDEDAFQGLGEEDEEIDQFNDDTFGSGAVDDDWQEAHERLAELEEKLPVAVNEQTGNGERDEMDLLGDHEENLAERLSKMVIENELEDPAIMRAVQTRPVLQPQPGSLNSSIWDGSEVLRRIRGPLLAQEMPTVSVLEYALPQRPPQGPEDDRDLSERALPRRSTSPIIGSPPVRAVPIGTPPKQMAVPSFTQQILCPKPVHVRPPMPPRYPAPYGERMSPNQLCSVPNSSLLGHPFPPSVPPVLSPLQRAQLLGGAQLQPGRMSPSQFARVPGFVGSPLAAMNPKLLQGRVGQMLPPAPGFRAFFSAPPSATPPPQQHPPGPGPHLQNLRSQAPMFRPDTTHLHPQHRRLLHQRQQQNRSQHRNLNGAGDRGSHRSSHQDHLRKDPYANLMLQREKDWVSKIQMMQLQSTDPYLDDFYYQNYFEKLEKLSAAEEIQGDGPKKERTKLITPQVAKLEHAYKPVQFEGSLGKLTVSSVNNPRKMIDAVVTSRSEDDETKEKQVRDKRRKTLVIIEKTYSLLLDVEDYERRYLLSLEEERPALMDDRKHKICSMYDNLRGKLPGQERPSDDHFVQIMCIRKGKRMVARILPFLSTEQAADILMTTARNLPFLIKKDAQDEVLPCLLSPFSLLLYHLPSVSITSLLRQLMNLPQSAATPALSNPHLTAVLQNKFGLSLLLILLSRGEDLQSSDPATESTQNNQWTEVMFMATRELLRIPQAALAKPISIPTNLVSLFSRYVDRQKLNLLETKLQLVQGIR | -0.4586 | -0.05274
4 | EIF2AK2 (protein, UniProt P19525 2-551, looked up) Interferon-induced, …: AGDLSAGFFMEELNTYRQKQGVVLKYQELPNSGPPHDRRFTFQVIIDGREFPEGEGRSKKEAKNAAAKLAVEILNKEKKAVSPLLLTTTNSSEGLSMGNYIGLINRIAQKKRLTVNYEQCASGVHGPEGFHYKCKMGQKEYSIGTGSTKQEAKQLAAKLAYLQILSEETSVKSDYLSSGSFATTCESQSNSLVTSTLASESSSEGDFSADTSEINSNSDSLNSSSLLMNGLRNNQRKAKRSLAPRFDLPDMKETKYTVDKRFGMDFKEIELIGSGGFGQVFKAKHRIDGKTYVIKRVKYNNEKAEREVKALAKLDHVNIVHYNGCWDGFDYDPETSDDSLESSDYDPENSKNSSRSKTKCLFIQMEFCDKGTLEQWIEKRRGEKLDKVLALELFEQITKGVDYIHSKKLIHRDLKPSNIFLVDTKQVKIGDFGLVTSLKNDGKRTRSKGTLRYMSPEQISSQDYGKEVDLYALGLILAELLHVCDTAFETSKFFTDLRDGIISDIFDKKEKTLLQKLLSKKPEDRPNTSEILRTLTVWKKSPEKNERHTC | 2.168 | -0.09631
5 | TMOD3 (protein, UniProt Q9NYL9 1-352, looked up) Tropomodulin-3: MALPFRKDLEKYKDLDEDELLGNLSETELKQLETVLDDLDPENALLPAGFRQKNQTSKSTTGPFDREHLLSYLEKEALEHKDREDYVPYTGEKKGKIFIPKQKPVQTFTEEKVSLDPELEEALTSASDTELCDLAAILGMHNLITNTKFCNIMGSSNGVDQEHFSNVVKGEKILPVFDEPPNPTNVEESLKRTKENDAHLVEVNLNNIKNIPIPTLKDFAKALETNTHVKCFSLAATRSNDPVATAFAEMLKVNKTLKSLNVESNFITGVGILALIDALRDNETLAELKIDNQRQQLGTAVELEMAKMLEENTNILKFGYQFTQQGPRTRAANAITKNNDLVRKRRVEGDHQ | 0.4757 | -0.1127
6 | CSNK1A1 (protein, UniProt P48729 2-337, looked up) Casein kinase I isoform alpha: ASSSGSKAEFIVGGKYKLVRKIGSGSFGDIYLAINITNGEEVAVKLESQKARHPQLLYESKLYKILQGGVGIPHIRWYGQEKDYNVLVMDLLGPSLEDLFNFCSRRFTMKTVLMLADQMISRIEYVHTKNFIHRDIKPDNFLMGIGRHCNKLFLIDFGLAKKYRDNRTRQHIPYREDKNLTGTARYASINAHLGIEQSRRDDMESLGYVLMYFNRTSLPWQGLKAATKKQKYEKISEKKMSTPVEVLCKGFPAEFAMYLNYCRGLRFEEAPDYMYLRQLFRILFRTLNHQYDYTFDWTMLKQKAAQQAASSSGQGQQAQTPTGKQTDKTKSNMKGF | 0.6201 | -0.08165
7 | LIG3 (protein, UniProt P49916 43-1009, looked up) DNA ligase 3: LLHGHPLFLRRKPVLSFQGSHLRSRATYLVFLPGLHVGLCSGPCEMAEQRFCVDYAKRGTAGCKKCKEKIVKGVCRIGKVVPNPFSESGGDMKEWYHIKCMFEKLERARATTKKIEDLTELEGWEELEDNEKEQITQHIADLSSKAAGTPKKKAVVQAKLTTTGQVTSPVKGASFVTSTNPRKFSGFSAKPNNSGEAPSSPTPKRSLSSSKCDPRHKDCLLREFRKLCAMVADNPSYNTKTQIIQDFLRKGSAGDGFHGDVYLTVKLLLPGVIKTVYNLNDKQIVKLFSRIFNCNPDDMARDLEQGDVSETIRVFFEQSKSFPPAAKSLLTIQEVDEFLLRLSKLTKEDEQQQALQDIASRCTANDLKCIIRLIKHDLKMNSGAKHVLDALDPNAYEAFKASRNLQDVVERVLHNAQEVEKEPGQRRALSVQASLMTPVQPMLAEACKSVEYAMKKCPNGMFSEIKYDGERVQVHKNGDHFSYFSRSLKPVLPHKVAHFKDYIPQAFPGGHSMILDSEVLLIDNKTGKPLPFGTLGVHKKAAFQDANVCLFVFDCIYFNDVSLMDRPLCERRKFLHDNMVEIPNRIMFSEMKRVTKALDLADMITRVIQEGLEGLVLKDVKGTYEPGKRHWLKVKKDYLNEGAMADTADLVVLGAFYGQGSKGGMMSIFLMGCYDPGSQKWCTVTKCAGGHDDATLARLQNELDMVKISKDPSKIPSWLKVNKIYYPDFIVPDPKKAAVWEITGAEFSKSEAHTADGISIRFPRCTRIRDDKDWKSATNLPQLKELYQLSKEKADFTVVAGDEGSSTTGGSSEENKGPSGSAVSRKAPSKPSASTKKAEGKLSNSNSKDGNMQTAKPSAMKVGEKLATKSSPVKVGEKRKAADETLCQTKVLLDIFTGVRLYLPPSTPDFSRLRRYFVAFDGDLVQEFDMTSATHVLGSRDKNPAAQQVSPEWIWACIRKRRLVAPC | -0.6994 | -0.06583
8 | HNRNPA1;HNRNPA1L2 (protein, UniProt P09651 1-372, looked up) Heterogeneous nuclear …: MSKSESPKEPEQLRKLFIGGLSFETTDESLRSHFEQWGTLTDCVVMRDPNTKRSRGFGFVTYATVEEVDAAMNARPHKVDGRVVEPKRAVSREDSQRPGAHLTVKKIFVGGIKEDTEEHHLRDYFEQYGKIEVIEIMTDRGSGKKRGFAFVTFDDHDSVDKIVIQKYHTVNGHNCEVRKALSKQEMASASSSQRGRSGSGNFGGGRGGGFGGNDNFGRGGNFSGRGGFGGSRGGGGYGGSGDGYNGFGNDGGYGGGGPGYSGGSRGYGSGGQGYGNQGSGYGGSGSYDSYNNGGGGGFGGGSGSNFGGGGSYNDFGNYNNQSSNFGPMKGGNFGGRSSGPYGGGGQYFAKPRNQGGYGGSSSSSSYGSGRRF | 0.6063 | -0.1001
9 | MYBBP1A (protein, UniProt Q9BQG0 1-1328, looked up) Myb-binding protein 1A: MESRDPAQPMSPGEATQSGARPADRYGLLKHSREFLDFFWDIAKPEQETRLAATEKLLEYLRGRPKGSEMKYALKRLITGLGVGRETARPCYSLALAQLLQSFEDLPLCSILQQIQEKYDLHQVKKAMLRPALFANLFGVLALFQSGRLVKDQEALMKSVKLLQALAQYQNHLQEQPRKALVDILSEVSKATLQEILPEVLKADLNIILSSPEQLELFLLAQQKVPSKLKKLVGSVNLFSDENVPRLVNVLKMAASSVKKDRKLPAIALDLLRLALKEDKFPRFWKEVVEQGLLKMQFWPASYLCFRLLGAALPLLTKEQLHLVMQGDVIRHYGEHVCTAKLPKQFKFAPEMDDYVGTFLEGCQDDPERQLAVLVAFSSVTNQGLPVTPTFWRVVRFLSPPALQGYVAWLRAMFLQPDLDSLVDFSTNNQKKAQDSSLHMPERAVFRLRKWIIFRLVSIVDSLHLEMEEALTEQVARFCLFHSFFVTKKPTSQIPETKHPFSFPLENQAREAVSSAFFSLLQTLSTQFKQAPGQTQGGQPWTYHLVQFADLLLNHSHNVTTVTPFTAQQRQAWDRMLQTLKELEAHSAEARAAAFQHLLLLVGIHLLKSPAESCDLLGDIQTCIRKSLGEKPRRSRTKTIDPQEPPWVEVLVEILLALLAQPSHLMRQVARSVFGHICSHLTPRALQLILDVLNPETSEDENDRVVVTDDSDERRLKGAEDKSEEGEDNRSSESEEESEGEESEEEERDGDVDQGFREQLMTVLQAGKALGGEDSENEEELGDEAMMALDQSLASLFAEQKLRIQARRDEKNKLQKEKALRRDFQIRVLDLVEVLVTKQPENALVLELLEPLLSIIRRSLRSSSSKQEQDLLHKTARIFTHHLCRARRYCHDLGERAGALHAQVERLVQQAGRQPDSPTALYHFNASLYLLRVLKGNTAEGCVHETQEKQKAGTDPSHMPTGPQAASCLDLNLVTRVYSTALSSFLTKRNSPLTVPMFLSLFSRHPVLCQSLLPILVQHITGPVRPRHQACLLLQKTLSMREVRSCFEDPEWKQLMGQVLAKVTENLRVLGEAQTKAQHQQALSSLELLNVLFRTCKHEKLTLDLTVLLGVLQGQQQSLQQGAHSTGSSRLHDLYWQAMKTLGVQRPKLEKKDAKEIPSATQSPISKKRKKKGFLPETKKRKKRKSEDGTPAEDGTPAATGGSQPPSMGRKKRNRTKAKVPAQANGTPTTKSPAPGAPTRSPSTPAKSPKLQKKNQKPSQVNGAPGSPTEPAGQKQHQKALPKKGVLGKSPLSALARKKARLSLVIRSPSLLQSGAKKKAQVRKAGKP | 2.289 | -0.04518
